The results in this text go back to PMC7367873, “Dissecting the sequence determinants for dephosphorylation by the catalytic subunits of phosphatases PP1 and PP2A” (Nature Communications, 2020).

The chains are these.
B1: CCDC6 (protein, UniProt Q16204 2-474, looked up)
Coiled-coil domain-containing …: ADSASESDTDGAGGNSSSSAAMQSSCSSTSGGGGGGGGGGGGGKSGGIVISPFRLEELTNRLASLQQENKVLKIELETYKLKCKALQEENRDLRKASVTIQARAEQEEEFISNTLFKKIQALQKEKETLAVNYEKEEEFLTNELSRKLMQLQHEKAELEQHLEQEQEFQVNKLMKKIKKLENDTISKQLTLEQLRREKIDLENTLEQEQEALVNRLWKRMDKLEAEKRILQEKLDQPVSAPPSPRDISMEIDSPENMMRHIRFLKNEVERLKKQLRAAQLQHSEKMAQYLEEERHMREENLRLQRKLQREMERREALCRQLSESESSLEMDDERYFNEMSAQGLRPRTVSSPIPYTPSPSSSRPISPGLSYASHTVGFTPPTSLTRAGMSYYNSPGLHVQHMGTSHGITRPSPRRSNSPDKFKRPTPPPSPNTQTPVQPPPPPPPPPMQPTVPSAATSQPTPSQHSAHPSSQP
B2: ZFP36L2 (protein, UniProt P47974 1-494, looked up)
mRNA decay activator protein …: MSTTLLSAFYDVDFLCKTEKSLANLNLNNMLDKKAVGTPVAAAPSSGFAPGFLRRHSASNLHALAHPAPSPGSCSPKFPGAANGSSCGSAAAGGPTSYGTLKEPSGGGGTALLNKENKFRDRSFSENGDRSQHLLHLQQQQKGGGGSQINSTRYKTELCRPFEESGTCKYGEKCQFAHGFHELRSLTRHPKYKTELCRTFHTIGFCPYGPRCHFIHNADERRPAPSGGASGDLRAFGTRDALHLGFPREPRPKLHHSLSFSGFPSGHHQPPGGLESPLLLDSPTSRTPPPPSCSSASSCSSSASSCSSASAASTPSGAPTCCASAAAAAAAALLYGTGGAEDLLAPGAPCAACSSASCANNAFAFGPELSSLITPLAIQTHNFAAVAAAAYYRSQQQQQQQGLAPPAQPPAPPSATLPAGAAAPPSPPFSFQLPRRLSDSPVFDAPPSPPDSLSDRDSYLSGSLSSGSLSGSESPSLDPGRRLPIFSRLSISDD
B3: SHCBP1 (protein, UniProt Q8NEM2 2-672, looked up)
SHC SH2 domain-binding …: ADGSLTGGGLEAAAMAPERMGWAVEQELASLEKGLFQDEDSCSDCSYRDKPGSSLQSFMPEGKTFFPEIFQTNQLLFYERFRAYQDYILADCKASEVQEFTAEFLEKVLEPSGWRAVWHTNVFKVLVEITDVDFAALKAVVRLAEPYLCDSQVSTFTMECMKELLDLKEHRLPLQELWVVFDDSGVFDQTALAIEHVRFFYQNIWRSWDEEEEDEYDYFVRCVEPRLRLHYDILEDRVPSGLIVDYHNLLSQCEESYRKFLNLRSSLSNCNSDSEQENISMVEGLKLYSEMEQLKQKLKLIENPLLRYVFGYQKNSNIQAKGVRSSGQKITHVVSSTMMAGLLRSLLTDRLCQEPGEEEREIQFHSDPLSAINACFEGDTVIVCPGHYVVHGTFSIADSIELEGYGLPDDIVIEKRGKGDTFVDCTGADIKISGIKFVQHDAVEGILIVHRGKTTLENCVLQCETTGVTVRTSAEFLMKNSDLYGAKGAGIEIYPGSQCTLSDNGIHHCKEGILIKDFLDEHYDIPKISMVNNIIHNNEGYGVVLVKPTIFSDLQENAEDGTEENKALKIQTSGEPDVAERVDLEELIECATGKMELCARTDPSEQVEGNCEIVNELIAASTQKGQIKKKRLSELGITQADDNLMSQEMFVGIVGNQFKWNGKGSFGTFLF
B4: RAPGEF2 (protein, UniProt Q9Y4G8 1-1499, looked up)
Rap guanine nucleotide …: MKPLAIPANHGVMGQQEKHSLPADFTKLHLTDSLHPQVTHVSSSHSGCSITSDSGSSSLSDIYQATESEAGDMDLSGLPETAVDSEDDDDEEDIERASDPLMSRDIVRDCLEKDPIDRTDDDIEQLLEFMHQLPAFANMTMSVRRELCAVMVFAVVERAGTIVLNDGEELDSWSVILNGSVEVTYPDGKAEILCMGNSFGVSPTMDKEYMKGVMRTKVDDCQFVCIAQQDYCRILNQVEKNMQKVEEEGEIVMVKEHRELDRTGTRKGHIVIKGTSERLTMHLVEEHSVVDPTFIEDFLLTYRTFLSSPMEVGKKLLEWFNDPSLRDKVTRVVLLWVNNHFNDFEGDPAMTRFLEEFENNLEREKMGGHLRLLNIACAAKAKRRLMTLTKPSREAPLPFILLGGSEKGFGIFVDSVDSGSKATEAGLKRGDQILEVNGQNFENIQLSKAMEILRNNTHLSITVKTNLFVFKELLTRLSEEKRNGAPHLPKIGDIKKASRYSIPDLAVDVEQVIGLEKVNKKSKANTVGGRNKLKKILDKTRISILPQKPYNDIGIGQSQDDSIVGLRQTKHIPTALPVSGTLSSSNPDLLQSHHRILDFSATPDLPDQVLRVFKADQQSRYIMISKDTTAKEVVIQAIREFAVTATPDQYSLCEVSVTPEGVIKQRRLPDQLSKLADRIQLSGRYYLKNNMETETLCSDEDAQELLRESQISLLQLSTVEVATQLSMRNFELFRNIEPTEYIDDLFKLRSKTSCANLKRFEEVINQETFWVASEILRETNQLKRMKIIKHFIKIALHCRECKNFNSMFAIISGLNLAPVARLRTTWEKLPNKYEKLFQDLQDLFDPSRNMAKYRNVLNSQNLQPPIIPLFPVIKKDLTFLHEGNDSKVDGLVNFEKLRMIAKEIRHVGRMASVNMDPALMFRTRKKKWRSLGSLSQGSTNATVLDVAQTGGHKKRVRRSSFLNAKKLYEDAQMARKVKQYLSNLELEMDEESLQTLSLQCEPATNTLPKNPGDKKPVKSETSPVAPRAGSQQKAQSLPQPQQQPPPAHKINQGLQVPAVSLYPSRKKVPVKDLPPFGINSPQALKKILSLSEEGSLERHKKQAEDTISNASSQLSSPPTSPQSSPRKGYTLAPSGTVDNFSDSGHSEISSRSSIVSNSSFDSVPVSLHDERRQRHSVSIVETNLGMGRMERRTMIEPDQYSLGSYAPMSEGRGLYATATVISSPSTEELSQDQGDRASLDAADSGRGSWTSCSSGSHDNIQTIQHQRSWETLPFGHTHFDYSGDPAGLWASSSHMDQIMFSDHSTKYNRQNQSRESLEQAQSRASWASSTGYWGEDSEGDTGTIKRRGGKDVSIEAESSSLTSVTTEETKPVPMPAHIAVASSTTKGLIARKEGRYREPPPTPPGYIGIPITDFPEGHSHPARKPPDYNVALQRSRMVARSSDTAGPSSVQQPHGHPTSSRPVNKPQWHKPNESDPRLAPYQSQGFSTEEDEDEQVSAV
B5: PDLIM5 (protein, UniProt Q96HC4 2-596, looked up)
PDZ and LIM domain protein 5: SNYSVSLVGPAPWGFRLQGGKDFNMPLTISSLKDGGKAAQANVRIGDVVLSIDGINAQGMTHLEAQNKIKGCTGSLNMTLQRASAAPKPEPVPVQKGEPKEVVKPVPITSPAVSKVTSTNNMAYNKAPRPFGSVSSPKVTSIPSPSSAFTPAHATTSSHASPSPVAAVTPPLFAASGLHANANLSADQSPSALSAGKTAVNVPRQPTVTSVCSETSQELAEGQRRGSQGDSKQQNGPPRKHIVERYTEFYHVPTHSDASKKRLIEDTEDWRPRTGTTQSRSFRILAQITGTEHLKESEADNTKKANNSQEPSPQLASSVASTRSMPESLDSPTSGRPGVTSLTAAAAFKPVGSTGVIKSPSWQRPNQGVPSTGRISNSATYSGSVAPANSALGQTQPSDQDTLVQRAEHIPAGKRTPMCAHCNQVIRGPFLVALGKSWHPEEFNCAHCKNTMAYIGFVEEKGALYCELCYEKFFAPECGRCQRKILGEVISALKQTWHVSCFVCVACGKPIRNNVFHLEDGEPYCETDYYALFGTICHGCEFPIEAGDMFLEALGYTWHDTCFVCSVCCESLEGQTFFSKKDKPLCKKHAHSVNF
B6: TSC1 (protein, UniProt Q92574 1-1164, looked up)
Hamartin: MAQQANVGELLAMLDSPMLGVRDDVTAVFKENLNSDRGPMLVNTLVDYYLETSSQPALHILTTLQEPHDKHLLDRINEYVGKAATRLSILSLLGHVIRLQPSWKHKLSQAPLLPSLLKCLKMDTDVVVLTTGVLVLITMLPMIPQSGKQHLLDFFDIFGRLSSWCLKKPGHVAEVYLVHLHASVYALFHRLYGMYPCNFVSFLRSHYSMKENLETFEEVVKPMMEHVRIHPELVTGSKDHELDPRRWKRLETHDVVIECAKISLDPTEASYEDGYSVSHQISARFPHRSADVTTSPYADTQNSYGCATSTPYSTSRLMLLNMPGQLPQTLSSPSTRLITEPPQATLWSPSMVCGMTTPPTSPGNVPPDLSHPYSKVFGTTAGGKGTPLGTPATSPPPAPLCHSDDYVHISLPQATVTPPRKEERMDSARPCLHRQHHLLNDRGSEEPPGSKGSVTLSDLPGFLGDLASEEDSIEKDKEEAAISRELSEITTAEAEPVVPRGGFDSPFYRDSLPGSQRKTHSAASSSQGASVNPEPLHSSLDKLGPDTPKQAFTPIDLPCGSADESPAGDRECQTSLETSIFTPSPCKIPPPTRVGFGSGQPPPYDHLFEVALPKTAHHFVIRKTEELLKKAKGNTEEDGVPSTSPMEVLDRLIQQGADAHSKELNKLPLPSKSVDWTHFGGSPPSDEIRTLRDQLLLLHNQLLYERFKRQQHALRNRRLLRKVIKAAALEEHNAAMKDQLKLQEKDIQMWKVSLQKEQARYNQLQEQRDTMVTKLHSQIRQLQHDREEFYNQSQELQTKLEDCRNMIAELRIELKKANNKVCHTELLLSQVSQKLSNSESVQQQMEFLNRQLLVLGEVNELYLEQLQNKHSDTTKEVEMMKAAYRKELEKNRSHVLQQTQRLDTSQKRILELESHLAKKDHLLLEQKKYLEDVKLQARGQLQAAESRYEAQKRITQVFELEILDLYGRLEKDGLLKKLEEEKAEAAEAAEERLDCCNDGCSDSMVGHNEEASGHNGETKTPRPSSARGSSGSRGGGGSSSSSSELSTPEKPPHQRAGPFSSRWETTMGEASASIPTTVGSLPSSKSFLGMKARELFRNKSESQCDEDGMTSSLSESLKTELGKDLGVEAKIPLNLDGPHPSPPTPDSVGQLHIMDYNETHHEHS

One experiment has as its system GFP-14-3-3β and its binding proteins. Briefly: GFP-14-3-3β co-IP with LC-MS/MS label-free quantification, untreated versus PP1c-treated. As to conditions: pairwise comparison PP1 vs untreated, student's t-test; 3 replicates each; LC-MS/MS label-free quantification. Also on record: species or system human.
Regarding B1, the “Difference (log2), PP1 vs untreated” value is reported as -3.654 log2.
B2: the “Difference (log2), PP1 vs untreated” value is reported as -3.391 log2.
The same measure, in the same setting: as for B3, the figure is -3.298 log2; as for B4, -3.585 log2; as for B5, -3.258 log2.
Still for that read-out and setting: the same measure for B6: -3.2926 log2.

For the next experiment, the system named is GFP-14-3-3β. Briefly: GFP-14-3-3β co-IP with LC-MS/MS, untreated GFP-14-3-3β versus GFP control (14-3-3 interactome). In kind it is binding, human. As to conditions: pairwise comparison untreated GFP-14-3-3β vs GFP, student's t-test; 3 replicates each; LC-MS/MS label-free quantification.
In the case of B1, the “Difference (log2), untreated vs GFP” value is given as 4.515 log2.
Consider B2, for which the “Difference (log2), untreated vs GFP” value is listed as 3.556 log2.
On the same count and under the same terms, the same measure for B3: 4.099 log2; for B4: 2.788 log2; for B5: 1.189 log2.
As for B6, the “Difference (log2), untreated vs GFP” value was found to be 2.521 log2.
